Measured values published in patent US20160002619A1 (CORNELL UNIVERSITY, published 2016).
Substitutions are numbered along the chain they refer to. In names and notes the source's numbering stands.

Experiments:
[1] = molecular target: T1, ALEXA FLUOR 488-labeled wild type mouse KGA (kidney type glutaminase isoform 1, residues 72-674) (mouse, UniProt D3Z7P3 72-674, ALEXA FLUOR 488 succinimidyl ester covalently attached to a lysine amino group (exact residue not given)); assay: FRET time course: quenching of 10 nM 488-KGA fluorescence by QSY 9-KGA, then 10-fold excess unlabeled WT-KGA [panel a]
T1 construct: Recombinant; His-tag cleaved with thrombin
T1 sequence: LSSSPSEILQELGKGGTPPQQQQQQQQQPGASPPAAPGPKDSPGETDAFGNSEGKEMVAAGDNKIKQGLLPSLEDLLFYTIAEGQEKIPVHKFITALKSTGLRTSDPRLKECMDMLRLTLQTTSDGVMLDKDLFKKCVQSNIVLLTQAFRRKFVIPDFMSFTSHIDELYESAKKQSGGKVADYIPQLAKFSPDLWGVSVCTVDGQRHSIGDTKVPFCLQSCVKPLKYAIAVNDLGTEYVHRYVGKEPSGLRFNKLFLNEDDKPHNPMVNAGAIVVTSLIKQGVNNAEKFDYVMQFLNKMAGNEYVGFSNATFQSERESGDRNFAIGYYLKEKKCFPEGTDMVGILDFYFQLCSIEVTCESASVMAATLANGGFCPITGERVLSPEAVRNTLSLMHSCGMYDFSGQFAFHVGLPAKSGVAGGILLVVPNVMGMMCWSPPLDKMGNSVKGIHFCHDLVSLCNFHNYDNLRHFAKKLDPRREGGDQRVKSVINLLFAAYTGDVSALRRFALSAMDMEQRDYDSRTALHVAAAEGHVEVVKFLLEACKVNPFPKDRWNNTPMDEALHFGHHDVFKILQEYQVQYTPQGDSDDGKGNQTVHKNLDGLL
Procedure: FIGS. 9A-B illustrate that the alternate splice variant KGA behaves like GAC in a FRET assay. […] After 5 minutes, the appropriate volume of 33.25 μM (for concentrations up to 200 nM labeled protein) or 69.5 μM (for concentrations above 200 nM labeled protein) unlabeled WT-KGA was added to make the final concentration of unlabeled KGA to be ten-times the concentration of labeled KGA.

[2] = molecular target: the molecule itself; assay: SEC-MALS, self-association
Text: FIGS. 4A-F define the oligomeric species of GAC mutants. In particular, multi-angle light scattering profiles of WT-GAC (FIG. 4A), D391K-GAC (FIG. 4B), K316E-D391K-R459E-GAC (FIG. 4C), and K316E-GAC (FIG. 4D) were obtained following SEC and subsequent MALS analysis, where elution of each species was monitored using refractive index (left axis). Upon elution, light scattering data was collected and then used to calculate the molecular weight and polydispersity for the species eluted (right axis). Reference lines for the molecular weights of the monomer, dimer, and tetramer forms of GAC are included at 58 kD, 116 kD, and 230 kD respectively. […]
Purified GAC and GAC mutants were subjected to analytical size exclusion chromatography on a Superdex 200 10/300 GL column (GE Healthcare) equilibrated with 20 mM Tris-HCl pH 8.5, 200 mM NaCl for experiments in the absence of inorganic phosphate and 20 mM Tris-HCl pH 8.5, 200 mM NaCl, 50 mM K₂HPO₄ for experiments in the presence of inorganic phosphate at a temperature of 4° C. and flow rate of 0.4 ml/min. […] RMS radius and mass distribution (polydispersity) was analyzed using the ASTRA software using monomeric BSA (Sigma) to normalize the light scattering signal.

[3] = molecular target: the molecule itself; assay: preparative Superdex200 gel filtration, self-association
[4] = molecular target: the molecule itself; assay: analytical gel filtration (Superdex 200 10/300 GL), self-association
Procedure: FIGS. 3A-C illustrate that WT GAC accesses monomer, dimer, and larger oligomeric species in a concentration and phosphate dependent manner.
Purified GAC and GAC mutants were subjected to analytical size exclusion chromatography on a Superdex 200 10/300 GL column (GE Healthcare) equilibrated with 20 mM Tris-HCl pH 8.5, 200 mM NaCl for experiments in the absence of inorganic phosphate and 20 mM Tris-HCl pH 8.5, 200 mM NaCl, 50 mM K₂HPO₄ for experiments in the presence of inorganic phosphate at a temperature of 4° C. and flow rate of 0.4 ml/min. Protein concentrations were prepared to be either 5 mg/mL or 0.5 mg/mL and centrifuged at 10,000×g for 10 minutes prior to injecting 200 μL of each sample. The same protocol was followed for MALS analysis. Briefly, 50 μL samples of 0.5, 5, or 10 mg/mL GAC was injected onto a WTC-030S5 size exclusion column (Wyatt technology) coupled to a static 18-angle light scattering detector (DAWN HELEOS-II) and a refractive index detector (OptiLab T-rEX, Wyatt Technology) kept at 23° C. The flow rate was kept at 1 mL/min. RMS radius and mass distribution (polydispersity) was analyzed using the ASTRA software using monomeric BSA (Sigma) to normalize the light scattering signal.

[5] = molecular target: T2, ALEXA FLUOR 488-labeled wild type mouse GAC (glutaminase C, residues 72-603) (mouse, UniProt D3Z7P3 72-555, ALEXA FLUOR 488 succinimidyl ester covalently attached to a lysine amino group within the glutaminase domain (exact residue not given)); assay: FRET time course: 200 nM QSY 9-labeled GAC added to 20 nM 488-WT-GAC
T2 construct: Recombinant from pET23a with an N-terminal His-tag and thrombin site; The tag was cleaved with thrombin; The oligomeric state (monomer/dimer/tetramer) depends on concentration
T2 sequence: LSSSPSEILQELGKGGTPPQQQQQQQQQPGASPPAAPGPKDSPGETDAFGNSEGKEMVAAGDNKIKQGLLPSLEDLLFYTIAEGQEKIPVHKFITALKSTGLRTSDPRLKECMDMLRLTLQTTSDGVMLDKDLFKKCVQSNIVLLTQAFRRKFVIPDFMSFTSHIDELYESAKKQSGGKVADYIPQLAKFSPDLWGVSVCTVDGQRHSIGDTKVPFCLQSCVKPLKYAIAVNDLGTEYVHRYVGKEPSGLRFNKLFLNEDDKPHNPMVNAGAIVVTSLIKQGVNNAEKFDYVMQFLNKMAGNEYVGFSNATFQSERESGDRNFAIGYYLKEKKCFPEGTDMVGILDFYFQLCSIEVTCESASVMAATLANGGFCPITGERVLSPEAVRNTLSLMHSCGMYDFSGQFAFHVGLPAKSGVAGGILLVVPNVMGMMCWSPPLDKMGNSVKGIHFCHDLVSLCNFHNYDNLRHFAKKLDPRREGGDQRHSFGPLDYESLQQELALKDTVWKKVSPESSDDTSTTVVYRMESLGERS
Procedure: Upon elution, light scattering data was collected and then used to calculate the molecular weight and polydispersity for the species eluted (right axis). Reference lines for the molecular weights of the monomer, dimer, and tetramer forms of GAC are included at 58 kD, 116 kD, and 230 kD respectively. […] In FIG. 4F, WT GAC and GAC mutants were titrated and added to an assay of 20 mM glutamine in the absence of phosphate to show no concentration dependent activation was observed of purified GAC mutants.
Fluorescence experiments were performed using a Varian Carry Eclipse Fluorometer in the counting mode. Excitation and emission wavelengths were 490 and 520 nm, respectively. Experiments were all prepared as one-mL samples and stirred continuously at 20° C. in 50 mM Tris-Acetate pH 8.5, 0.1 mM ethylenediaminetetraacetic acid (EDTA). […] Both BPTES and 968 were prepared in DMSO, and appropriate dilutions were made so that less than 2% (v/v) DMSO was added to an experimental sample.

B1: QSY 9-labeled wild type mouse KGA (kidney type glutaminase isoform 1, residues 72-674) (enzyme)
chain: T1 sequence
modifications: QSY 9 succinimidyl ester covalently attached to a lysine amino group (exact residue not given)
notes: Recombinant; His-tag cleaved with thrombin; also called QSY 9-KGA
Does B1 bind [1]?
Result: binds

B2: unlabeled wild type mouse GAC (glutaminase C, residues 72-603) (enzyme)
chain: T2 sequence
notes: Recombinant; His-tag cleaved with thrombin; The oligomeric state depends on concentration and phosphate; also called WT-GAC; WT GAC
What does the source list for B2?
concentration dependent activation of WT-GAC (glutaminase activity, two-step assay, no phosphate): The quenching was shown to be concentration dependent with the resultant FRET titration curve strongly correlating with the concentration dependent activation of WT-GAC; glutaminase specific activity (µM Glu/µM GAC min) of 50 nM WT-GAC, two-step assay, 20 mM glutamine, phosphate varied: specific activity (filled circles) rises from about 500 near 3 mM phosphate to about 5000 at 20 mM and 8000 at 45 mM; it is flat at about 8700 from 67 to 150 mM; glutaminase specific activity (µM Glu/µM GAC min), two-step assay, 20 mM glutamine, no phosphate: specific activity (filled circles) rises from about 100 at 50 nM GAC to about 290 at 230 nM, 410 at 510 nM and about 460-470 at 770 and 1150 nM, lying on the FRET points; binding result [2]: binds

B3: Δ72 K316E-GAC (enzyme)
glutaminase C subunit: T2 sequence with K245E
notes: Unlabeled single mutant of the mouse GAC construct
Does B3 bind [2]?
Result: binds

B4: unlabeled mouse GAC K316E/D391K/R459E (constitutive monomer mutant) (enzyme)
chain: T2 sequence with K245E, D320K, R388E
notes: also called K316E-D391K-R459E-GAC; monomeric GAC (K316E-D391K-R459E)
With B4 as the binder, how does the “concentration dependent activation (glutaminase activity, 20 mM glutamine, no phosphate)” value read?
Its value is “no concentration dependent activation was observed of purified GAC mutants”.

Does B4 bind [3]?
Result: no binding

B5: unlabeled mouse GAC D391K (constitutive dimer mutant) (enzyme)
chain: T2 sequence with D320K
notes: also called D391K-GAC
With B5 as the binder, how does the “concentration dependent activation (glutaminase activity, 20 mM glutamine, no phosphate)” value read?
The value was “no concentration dependent activation was observed of purified GAC mutants”.

Does B5 bind [4]?
Result: binds

B6: QSY 9-labeled mouse GAC K316E/D391K/R459E (constitutive monomer mutant) (enzyme)
chain: T2 sequence with K245E, D320K, R388E
modifications: QSY 9 succinimidyl ester covalently attached to a lysine amino group (exact residue not given)
notes: also called QSY 9-K316E-D391K-R459E; QSY 9-GAC (K316E, D391K, R459E) monomer mutant
Does B6 bind [5]?
Result: no binding (tested: 200 nM)
